Target: Cnn-C^S186D scaffolds (Cnn-C-PReM^m with S186 phosphomimicked) (Drosophila melanogaster)

- recruitment of γ-tubulin to scaffolds in unfertilized eggs, fold over Cnn-C scaffolds: 3.8 fold
Substance: γ-tubulin37C-mCherry (from UniProt P42271 1-457) (natural protein)

— paper PMC8164090
